Laboratory results published in patent publication US20210238289A1 (Biogen, published 2021).

Columns and labels:
[1] = target: α4β1 (VLA-4) as used in the competition ELISAs (UniProt P13612 34-970; P05556 21-728); test: competition ELISA; integrin preincubated with test mAb, then murine HP1/2 as competing reagent
[2] = target: T1, human C1q (human, UniProt P02745 23-245; P02746 28-253; P02747 29-245); test: C1q ELISA
T1 construct: Bought protein; also called complement factor C1q; Sigma human C1q (C0660)
Method: The C1q binding assay was be performed by coating 96 well Maxisorb ELISA plates (Nalge-Nunc Rochester, N.Y., USA) with 50 μl recombinant soluble human CD40 ligand at 10 ug/ml overnight at 4° C. in PBS. The wells were aspirated and washed three times with wash buffer (PBS, 0.05% Tween 20) and blocked for 1 hour with 200 µl/well of block/diluent buffer (0.1 M Na2HP04, pH 7.0, 1 M NaCl, 0.05% Tween 20, 1% gelatin). The antibodies were diluted in block/diluent buffer with 3-fold dilutions and incubated for 2 hours at room temperature.
After aspirating and washing as above, 50 pll/well of sheep anti C1q (Serotec AHP033), diluted 3, 560-fold in block/diluent buffer, were added. After incubation for 1 h at room temperature, the wells were aspirated and washed as above. 50 pll/well of donkey anti-sheep IgG HRP conjugate (Jackson ImmunoResearch 713-035-147) diluted to 1:10,000 in block/diluent were then added, and the wells incubated for 1 h at room temperature.
After aspirating and washing as above, 100 all TMB substrate (420 plM TMB, 0.004% H2O2 in 0.1 M sodium acetate/citric acid buffer, pH 4.9) were added and incubated for 2 min before the reaction was stopped with 100 ul 2 N sulfuric acid. The absorbance was read at 450 nm with a Softmax PRO instrument, and Softmax software was used to determine the relative binding affinity (C value) with a 4-parameter fit.

[3] = target: CD64 (FcγRI) (UniProt P12314 16-288, limits assumed); test: solution competition SPR (Biacore)
Method: Binding to Fcγ receptors was analyzed using solution affinity surface plasmon resonance (ref Day E S, Cachero T G, Qian F, Sun Y, Wen D, Pelletier M, Hsu Y M, Whitty A. Selectivity of BAFF/BLyS and APRIL for binding to the TNF family receptors BAFFR/BR3 and BCMA. Biochemistry. 2005 Feb. 15; 44(6):1919-31.) The method utilizes conditions of so-called “mass-transport-limited” binding, in which the initial rate of ligand binding (protein binding to the senor chip) is proportional to the concentration of ligand in solution (ref BIApplications Handbook (1994) Chapter 6: Concentration measurement, pp 6-1-6-10, Pharmacia Biosensor AB). Under these conditions, binding of the soluble analyte (protein flowing over chip surface) to the immobilized protein on the chip is fast compared to the diffusion of the analyte into the dextran matrix on the chip surface. Therefore, the diffusion properties of the analyte and the concentration of analyte in solution flowing over the chip surface determine the rate at which analyte binds to the chip. In this experiment, the concentration of free Fc receptor in solution is determined by the initial rate of binding to a CM5 Biacore chip containing an immobilized IgG1 MAb. Into these Fc receptor solutions were titrated the stability engineered constructs (see Table 10.1 below). […] Initial binding rates were obtained from raw sensorgram data (FIG. 14). […] The results are shown in Table 10.1 and reported as the average of two titrations.

Binder	IC50 [1]	binding result [2]	IC50 [3]
H1L3 (antibody, V domains shown, also called Design H1 / Design L3) VH: EVQLVQSGAEVKKPGATVKISCKASGFNIKDTYMHWVQQAPGKGLEWMGRIDPASGDTKYDPKFQVRVTITADTSTDTAYMELSSLRSEDTAVYYCADGMWVSTGYALDFWGQGTLVTVSS VL: SIVMTQSPDSLAVSLGERATINCKASQSVTNDVAWYQQKPGQPPKLLIYYASNRYTGVPDRFSGSGYGTDFTFTISSLQAEDVATYFCQQDYSSPYTFGQGTKVEIK	0.49 nM	–	–
CN645 (hu5c8 IgG1 N297P, T299K) (antibody) heavy: not shown light: DIVLTQSPATLSVSPGERATISCRASQRVSSSTYSYMHWYQQKPGQPPKLLIKYASNLESGVPARFSGSGSGTDFTLTISSVEPEDFATYYCQHSWEIPPTFGGGTKLEIKRTVAAPSVFIFPPSDEQLKSGTASVVCLLNNFYPREAKVQWKVDNALQSGNSQESVTEQDSKDSTYSLSSTLTLSKADYEKHKVYACEVTHQGLSSPVTKSFNRGEC	–	no binding	4.39 mM
EAG2412 (hu5c8 S228P/N297Q, IgG4 CH1, IgG4 CH2, IgG1 CH3, aglycosylated) (antibody, also called N297Q IgG4-CH2/IgG1-CH3; copies: 2 + 2) heavy: QVQLVQSGAEVVKPGASVKLSCKASGYIFTSYYMYWVKQAPGQGLEWIGEINPSNGDTNFNEKFKSKATLTVDKSASTAYMELSSLRSEDTAVYYCTRSDGRNDMDSWGQGTLVTVSSASTKGPSVFPLAPCSRSTSESTAALGCLVKDYFPEPVTVSWNSGALTSGVHTFPAVLQSSGLYSLSSVVTVPSSSLGTKTYTCNVDHKPSNTKVDKRVESKYGPPCPPCPAPEFLGGPSVFLFPPKPKDTLMISRTPEVTCVVVDVSQEDPEVQFNWYVDGVEVHNAKTKPREEQFQSTYRVVSVLTVLHQDWLNGKEYKCKVSNKGLPSSIEKTISKAKGQPREPQVYTLPPSRDELTKNQVSLTCLVKGFYPSDIAVEWESNGQPENNYKTTPPVLDSDGSFFLYSKLTVDKSRWQQGNVFSCSVMHEALHNHYTQKSLSLSP light: DIVLTQSPATLSVSPGERATISCRASQRVSSSTYSYMHWYQQKPGQPPKLLIKYASNLESGVPARFSGSGSGTDFTLTISSVEPEDFATYYCQHSWEIPPTFGGGTKLEIKRTVAAPSVFIFPPSDEQLKSGTASVVCLLNNFYPREAKVQWKVDNALQSGNSQESVTEQDSKDSTYSLSSTLTLSKADYEKHKVYACEVTHQGLSSPVTKSFNRGEC	–	no binding	–
EAG2390 (hu5c8 IgG1 T299P) (antibody) heavy: not shown light: DIVLTQSPATLSVSPGERATISCRASQRVSSSTYSYMHWYQQKPGQPPKLLIKYASNLESGVPARFSGSGSGTDFTLTISSVEPEDFATYYCQHSWEIPPTFGGGTKLEIKRTVAAPSVFIFPPSDEQLKSGTASVVCLLNNFYPREAKVQWKVDNALQSGNSQESVTEQDSKDSTYSLSSTLTLSKADYEKHKVYACEVTHQGLSSPVTKSFNRGEC	–	no binding	0.392 mM

More lines, now with the values ahead:

IC50 [1]	binding result [2]	IC50 [3]	Binder
–	no binding	4.48 mM	CN647 (hu5c8 IgG1 N297D, T299K) (antibody) heavy: not shown light: DIVLTQSPATLSVSPGERATISCRASQRVSSSTYSYMHWYQQKPGQPPKLLIKYASNLESGVPARFSGSGSGTDFTLTISSVEPEDFATYYCQHSWEIPPTFGGGTKLEIKRTVAAPSVFIFPPSDEQLKSGTASVVCLLNNFYPREAKVQWKVDNALQSGNSQESVTEQDSKDSTYSLSSTLTLSKADYEKHKVYACEVTHQGLSSPVTKSFNRGEC
–	no binding	3.17 mM	CN646 (hu5c8 IgG1 N297S, T299K) (antibody) heavy: not shown light: DIVLTQSPATLSVSPGERATISCRASQRVSSSTYSYMHWYQQKPGQPPKLLIKYASNLESGVPARFSGSGSGTDFTLTISSVEPEDFATYYCQHSWEIPPTFGGGTKLEIKRTVAAPSVFIFPPSDEQLKSGTASVVCLLNNFYPREAKVQWKVDNALQSGNSQESVTEQDSKDSTYSLSSTLTLSKADYEKHKVYACEVTHQGLSSPVTKSFNRGEC
